# Measurements taken from patent US20170240619A1.
# Key:
# [1] = target: HER2 on SK-BR-3 human breast cancer cells (human) (UniProt P04626); experiment: flow cytometry on SK-BR-3 cells, human IgG1, anti-human IgG-FITC detection
# [2] = target: Biotinylated HER2 extracellular domain (human) (UniProt P04626); experiment: SPR (BIAcore), biotinylated HER2 ECD on streptavidin chip, scFv injected, 1:1 Langmuir fit
EC50 [1],Kd [2],koff [2],kon [2],Substance
0.925 µg/mL,–,–,–,"4D5 as human IgG1, VL 52D (WT/52D) (antibody)"
–,7.6 nM,0.00091 s⁻¹,120000 M⁻¹ s⁻¹,"4D5-b (4D5 scFv, VL 52D)"
